# Paper PMC6650547 (2019)
# T1: His-SUDV-NP(34-367) (Sudan virus (SUDV), strain Boniface, UniProt Q9QP77 34-367)
# T1 chain: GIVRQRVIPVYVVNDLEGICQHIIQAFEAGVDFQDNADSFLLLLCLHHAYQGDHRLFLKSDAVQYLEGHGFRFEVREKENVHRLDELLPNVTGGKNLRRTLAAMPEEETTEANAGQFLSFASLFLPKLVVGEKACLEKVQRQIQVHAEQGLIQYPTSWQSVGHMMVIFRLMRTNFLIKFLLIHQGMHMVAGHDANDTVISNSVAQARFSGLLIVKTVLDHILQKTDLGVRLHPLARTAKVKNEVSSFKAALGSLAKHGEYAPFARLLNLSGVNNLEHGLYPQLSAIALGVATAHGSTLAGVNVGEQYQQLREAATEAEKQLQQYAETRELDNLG
# B1: SUDV VP35 wild-type chaperone domain peptide (residues 1 to 34) (peptide)
# peptide: MQQDRTYRHHGPEVSGWFSEQLMTGKIPLTEVFV
# Biological target: T1, His-SUDV-NP(34-367)
# Test: BLI
binder,measurement,value
B1,koff,0.00583 s⁻¹
